Measurements: US20140087995A1 (published 2014)
Numbered stars: 1 amine (or outer) side, 2 acyl side, 3 side chain; on linkers, the order of the positions; unused ones are H or OH. Bridge positions count the residues as written; N and C are the ends. Side chains are listed from the residue outwards. Ends that are not written are not given here. * marks the point of attachment. C20 diacid = O=C(O)CCCCCCCCCCCCCCCCCCC(=O)*; γGlu = O=C(O)[C@H](CCC(=O)[*:2])N[*:1]

T1: human calcitonin receptor (human, UniProt P30988 25-474)
T1 sequence (looked up): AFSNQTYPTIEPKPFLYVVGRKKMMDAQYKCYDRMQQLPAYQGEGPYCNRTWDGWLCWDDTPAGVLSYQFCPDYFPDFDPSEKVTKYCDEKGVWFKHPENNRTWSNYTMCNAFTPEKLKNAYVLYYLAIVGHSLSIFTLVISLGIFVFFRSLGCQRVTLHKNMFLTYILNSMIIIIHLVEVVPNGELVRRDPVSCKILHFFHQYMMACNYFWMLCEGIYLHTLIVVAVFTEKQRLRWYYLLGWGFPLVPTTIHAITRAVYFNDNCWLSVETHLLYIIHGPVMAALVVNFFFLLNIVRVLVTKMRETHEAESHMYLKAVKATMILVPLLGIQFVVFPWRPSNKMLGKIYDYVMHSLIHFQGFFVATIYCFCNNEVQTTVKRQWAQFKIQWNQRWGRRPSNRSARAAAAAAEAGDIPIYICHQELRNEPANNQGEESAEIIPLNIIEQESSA

T2: human amylin receptor (Amylin 3(a) receptor: human calcitonin receptor co-expressed with RAMP-3) (human, UniProt P30988 25-474; O60896 24-148, limits assumed)
T2 construct: whole, on cells; Used as cell membranes prepared from the Amylin 3(a)/CRE-luc BHK cells (Assay V); the complex is called the human amylin receptor; also called hAmylin-R; hAmylinR
T2 sequence (looked up) 1: T1 sequence (looked up)
T2 sequence (looked up) 2: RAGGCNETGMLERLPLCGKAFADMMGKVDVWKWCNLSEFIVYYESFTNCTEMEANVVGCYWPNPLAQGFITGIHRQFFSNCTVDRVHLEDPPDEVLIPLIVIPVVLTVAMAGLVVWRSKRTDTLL

B1: N^ε1-[(4S)-4-carboxy-4-[[(4S)-4-carboxy-4-(19-carboxynonadecanoylamino)butanoyl]amino]butanoyl]-[Ser14,Arg17,Pro21,Pro27,Pro34,Glu35]-h-amylin (peptide)
peptide: K([γGlu-γGlu-C20 diacid])CNTATCATQRLASFLRHSSPNFGAIPSSTNVGPETY-NH2
modifications: disulfide 2-7; N-terminus assumed
SMILES: CC[C@H](C)[C@H](NC(=O)[C@H](C)NC(=O)CNC(=O)[C@H](Cc1ccccc1)NC(=O)[C@H](CC(N)=O)NC(=O)[C@@H]1CCCN1C(=O)[C@H](CO)NC(=O)[C@H](CO)NC(=O)[C@H](Cc1c[nH]cn1)NC(=O)[C@H](CCCNC(=N)N)NC(=O)[C@H](CC(C)C)NC(=O)[C@H](Cc1ccccc1)NC(=O)[C@H](CO)NC(=O)[C@H](C)NC(=O)[C@H](CC(C)C)NC(=O)[C@H](CCCNC(=N)N)NC(=O)[C@H](CCC(N)=O)NC(=O)[C@@H](NC(=O)[C@H](C)NC(=O)[C@@H]1CSSC[C@H](NC(=O)[C@@H](N)CCCCNC(=O)CC[C@H](NC(=O)CC[C@H](NC(=O)CCCCCCCCCCCCCCCCCCC(=O)O)C(=O)O)C(=O)O)C(=O)N[C@@H](CC(N)=O)C(=O)N[C@@H]([C@@H](C)O)C(=O)N[C@@H](C)C(=O)N[C@@H]([C@@H](C)O)C(=O)N1)[C@@H](C)O)C(=O)N1CCC[C@H]1C(=O)N[C@@H](CO)C(=O)N[C@@H](CO)C(=O)N[C@H](C(=O)N[C@@H](CC(N)=O)C(=O)N[C@H](C(=O)NCC(=O)N1CCC[C@H]1C(=O)N[C@@H](CCC(=O)O)C(=O)N[C@H](C(=O)N[C@@H](Cc1ccc(O)cc1)C(N)=O)[C@@H](C)O)C(C)C)[C@@H](C)O
notes: synthetic peptide amide; also called compound 120
B2: N{-1}-[(4S)-4-carboxy-4-(19-carboxynonadecanoylamino)butanoyl]-Gly[Arg1,His14,Arg17,Pro21,Pro27]-h-amylin (peptide)
peptide: {C20 diacid-γGlu}-GRCNTATCATQRLAHFLRHSSPNFGAIPSSTNVGSNTY-NH2
modifications: disulfide 3-8
SMILES: CC[C@H](C)[C@H](NC(=O)[C@H](C)NC(=O)CNC(=O)[C@H](Cc1ccccc1)NC(=O)[C@H](CC(N)=O)NC(=O)[C@@H]1CCCN1C(=O)[C@H](CO)NC(=O)[C@H](CO)NC(=O)[C@H](Cc1c[nH]cn1)NC(=O)[C@H](CCCNC(=N)N)NC(=O)[C@H](CC(C)C)NC(=O)[C@H](Cc1ccccc1)NC(=O)[C@H](Cc1c[nH]cn1)NC(=O)[C@H](C)NC(=O)[C@H](CC(C)C)NC(=O)[C@H](CCCNC(=N)N)NC(=O)[C@H](CCC(N)=O)NC(=O)[C@@H](NC(=O)[C@H](C)NC(=O)[C@@H]1CSSC[C@H](NC(=O)[C@H](CCCNC(=N)N)NC(=O)CNC(=O)CC[C@H](NC(=O)CCCCCCCCCCCCCCCCCCC(=O)O)C(=O)O)C(=O)N[C@@H](CC(N)=O)C(=O)N[C@@H]([C@@H](C)O)C(=O)N[C@@H](C)C(=O)N[C@@H]([C@@H](C)O)C(=O)N1)[C@@H](C)O)C(=O)N1CCC[C@H]1C(=O)N[C@@H](CO)C(=O)N[C@@H](CO)C(=O)N[C@H](C(=O)N[C@@H](CC(N)=O)C(=O)N[C@H](C(=O)NCC(=O)N[C@@H](CO)C(=O)N[C@@H](CC(N)=O)C(=O)N[C@H](C(=O)N[C@@H](Cc1ccc(O)cc1)C(N)=O)[C@@H](C)O)C(C)C)[C@@H](C)O
notes: N-terminal extension by Gly; synthetic peptide amide; also called compound 99
B3: N^-1-[(4S)-4-carboxy-4-(19-carboxynonadecanoylamino)butanoyl]-Gly[Arg1,His14,Arg17,Pro21,Pro27,His34]-h-amylin (peptide)
peptide: {C20 diacid-γGlu}-GRCNTATCATQRLAHFLRHSSPNFGAIPSSTNVGHNTY-NH2
modifications: disulfide 3-8
SMILES: CC[C@H](C)[C@H](NC(=O)[C@H](C)NC(=O)CNC(=O)[C@H](Cc1ccccc1)NC(=O)[C@H](CC(N)=O)NC(=O)[C@@H]1CCCN1C(=O)[C@H](CO)NC(=O)[C@H](CO)NC(=O)[C@H](Cc1c[nH]cn1)NC(=O)[C@H](CCCNC(=N)N)NC(=O)[C@H](CC(C)C)NC(=O)[C@H](Cc1ccccc1)NC(=O)[C@H](Cc1c[nH]cn1)NC(=O)[C@H](C)NC(=O)[C@H](CC(C)C)NC(=O)[C@H](CCCNC(=N)N)NC(=O)[C@H](CCC(N)=O)NC(=O)[C@@H](NC(=O)[C@H](C)NC(=O)[C@@H]1CSSC[C@H](NC(=O)[C@H](CCCNC(=N)N)NC(=O)CNC(=O)CC[C@H](NC(=O)CCCCCCCCCCCCCCCCCCC(=O)O)C(=O)O)C(=O)N[C@@H](CC(N)=O)C(=O)N[C@@H]([C@@H](C)O)C(=O)N[C@@H](C)C(=O)N[C@@H]([C@@H](C)O)C(=O)N1)[C@@H](C)O)C(=O)N1CCC[C@H]1C(=O)N[C@@H](CO)C(=O)N[C@@H](CO)C(=O)N[C@H](C(=O)N[C@@H](CC(N)=O)C(=O)N[C@H](C(=O)NCC(=O)N[C@@H](Cc1c[nH]cn1)C(=O)N[C@@H](CC(N)=O)C(=O)N[C@H](C(=O)N[C@@H](Cc1ccc(O)cc1)C(N)=O)[C@@H](C)O)C(C)C)[C@@H](C)O
notes: N-terminal extension by Gly; synthetic peptide amide; also called compound 100
B4: N^-1-[(4S)-4-carboxy-4-(19-carboxynonadecanoylamino)butanoyl]-Gly[Arg1,His14,Arg17,Pro21,Pro27,His34]-h-amylin (peptide)
peptide: {C20 diacid-γGlu}-GRCNTATCATQRLAHFLRHSSPNFGAIPSSTNVGHNTY-NH2
modifications: disulfide 3-8
SMILES: CC[C@H](C)[C@H](NC(=O)[C@H](C)NC(=O)CNC(=O)[C@H](Cc1ccccc1)NC(=O)[C@H](CC(N)=O)NC(=O)[C@@H]1CCCN1C(=O)[C@H](CO)NC(=O)[C@H](CO)NC(=O)[C@H](Cc1c[nH]cn1)NC(=O)[C@H](CCCNC(=N)N)NC(=O)[C@H](CC(C)C)NC(=O)[C@H](Cc1ccccc1)NC(=O)[C@H](Cc1c[nH]cn1)NC(=O)[C@H](C)NC(=O)[C@H](CC(C)C)NC(=O)[C@H](CCCNC(=N)N)NC(=O)[C@H](CCC(N)=O)NC(=O)[C@@H](NC(=O)[C@H](C)NC(=O)[C@@H]1CSSC[C@H](NC(=O)[C@H](CCCNC(=N)N)NC(=O)CNC(=O)CC[C@H](NC(=O)CCCCCCCCCCCCCCCCCCC(=O)O)C(=O)O)C(=O)N[C@@H](CC(N)=O)C(=O)N[C@@H]([C@@H](C)O)C(=O)N[C@@H](C)C(=O)N[C@@H]([C@@H](C)O)C(=O)N1)[C@@H](C)O)C(=O)N1CCC[C@H]1C(=O)N[C@@H](CO)C(=O)N[C@@H](CO)C(=O)N[C@H](C(=O)N[C@@H](CC(N)=O)C(=O)N[C@H](C(=O)NCC(=O)N[C@@H](Cc1c[nH]cn1)C(=O)N[C@@H](CC(N)=O)C(=O)N[C@H](C(=O)N[C@@H](Cc1ccc(O)cc1)C(N)=O)[C@@H](C)O)C(C)C)[C@@H](C)O
notes: modifications are with respect to human amylin; also called compound 100
B5: N^ε1-[(4S)-4-carboxy-4-(19-carboxynonadecanoylamino)butanoyl]-[Glu14,Arg17,Pro21,Pro27,Pro34,Glu35]-h-amylin (peptide)
peptide: K([γGlu-C20 diacid])CNTATCATQRLAEFLRHSSPNFGAIPSSTNVGPETY-NH2
modifications: disulfide 2-7; N-terminus assumed
SMILES: CC[C@H](C)[C@H](NC(=O)[C@H](C)NC(=O)CNC(=O)[C@H](Cc1ccccc1)NC(=O)[C@H](CC(N)=O)NC(=O)[C@@H]1CCCN1C(=O)[C@H](CO)NC(=O)[C@H](CO)NC(=O)[C@H](Cc1c[nH]cn1)NC(=O)[C@H](CCCNC(=N)N)NC(=O)[C@H](CC(C)C)NC(=O)[C@H](Cc1ccccc1)NC(=O)[C@H](CCC(=O)O)NC(=O)[C@H](C)NC(=O)[C@H](CC(C)C)NC(=O)[C@H](CCCNC(=N)N)NC(=O)[C@H](CCC(N)=O)NC(=O)[C@@H](NC(=O)[C@H](C)NC(=O)[C@@H]1CSSC[C@H](NC(=O)[C@@H](N)CCCCNC(=O)CC[C@H](NC(=O)CCCCCCCCCCCCCCCCCCC(=O)O)C(=O)O)C(=O)N[C@@H](CC(N)=O)C(=O)N[C@@H]([C@@H](C)O)C(=O)N[C@@H](C)C(=O)N[C@@H]([C@@H](C)O)C(=O)N1)[C@@H](C)O)C(=O)N1CCC[C@H]1C(=O)N[C@@H](CO)C(=O)N[C@@H](CO)C(=O)N[C@H](C(=O)N[C@@H](CC(N)=O)C(=O)N[C@H](C(=O)NCC(=O)N1CCC[C@H]1C(=O)N[C@@H](CCC(=O)O)C(=O)N[C@H](C(=O)N[C@@H](Cc1ccc(O)cc1)C(N)=O)[C@@H](C)O)C(C)C)[C@@H](C)O
notes: synthetic peptide amide

How the values were obtained:
[1] = target: T1, human calcitonin receptor; experiment: cell-based or functional assay
[2] = target: T2, human amylin receptor (Amylin 3(a) …); experiment: SPA competition binding, displacement of 125I-rat amylin from membranes of BHK cells with human calcitonin receptor + RAMP-3 (Assay V)
Experimental: The binding assay was performed using scintillation proximity assay (SPA) beads (RPNQ0001) from PerkinElmer and cell membranes from the Amylin 3(a)/CRE-luc cells (as described in Assay (II)) were used. Membranes were prepared in the following way; the cells were rinsed with PBS and incubated with Versene for approximately 5 min before harvesting. The cells were flushed with PBS and the cell-suspension was centrifuged for 5 min at 1000 rpm. Cells were homogenized (ultrathurrax) in a buffer containing 20 mM Na-HEPES and 10 mM EDTA (pH 7.4) and centrifuged at 20.000 rpm for 15 min. The resulting pellet was resuspended, homogenized and centrifuged (20.000 rpm, 15 min) in a buffer containing 20 mM Na-HEPES and 0.1 mM EDTA (pH 7.4, buffer 2). The resulting pellet was resuspended in buffer 2 and protein concentration was measured (BCA protein Assay, Pierce). The homogenate was kept cold during the whole procedure. The membranes were kept at −80° C. until use. The assay was performed in a 384 well Optiplate (PerkinElmer) in a total volume of 40 ul. Membranes were mixed with SPA beads. Final concentration of membranes 35 ng/μL final and SPA beads was 0.05 mg/well. Test-compounds were dissolved in DMSO and further diluted in assay buffer (50 mM Hepes, pH 7.4, 1 mM CaCl2, 5 mM MgCl₂, 0.1% OA and 0.02% Tween20). […] The final mixture was incubated with shaking at 400 rpm for 120 min at 25° C. prior to centrifugation (1500 rpm, 10 min). Samples were analyzed on TopCounter™ (Packard). The IC₅₀ was calculated using (one site binding competition analysis) GraphPad Prism5 as a measure of receptor affinity.

| Binder | hCTR funct. EC50 (pM) [1] | IC50 [2] |
| --- | --- | --- |
| B1 | 887 pM |  |
| B2 | 818 pM |  |
| B3 | 1730 pM |  |
| B4 |  | 1.01 nM |
| B5 | 841 pM |  |
